Reference: PMC9106921 (Nature immunology, 2022)
No end group written: not given here.

Molecular target: T1, recombinant cytoplasmic tail of CD4 (residues 421-458, C422S, C455S) (human, UniProt P01730 421-458, C422S | C455S)
T1 chain (looked up): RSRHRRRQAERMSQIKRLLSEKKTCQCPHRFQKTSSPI
Assay: NMR titration

SHPEDDWMENIDVCENCHYPIVPLDGKGT (domain or fragment, human, UniProt P06239 7-35, looked up, cysteine pairing not given here; also: 15N isotope labelling) [recombinant Lck (residues 7-35), 15N-labelled]
pKa of the pH-dependent disruption of the complex: 4.55 ± 0.1
